Measurements from publication PMC10202959.

What was measured:
Experiment in all cases: ELISA; plates coated with 100 nM ECM protein in PBS (1 h, 37 °C), blocked with 1% BSA in PBS-T; PDGF-BB or IL-1Ra variants at increasing concentrations in PBS-T with 0.1% BSA, 1 h at room temperature; detected with biotinylated antibodies; one site specific binding model; n = 3
human tenascin C (human) = human tenascin C (human) (UniProt P24821)
[1] = target: human plasma fibronectin (human)
[2] = target: human vitronectin (human) (UniProt P04004)
Sequence of human vitronectin (human) (P04004 20-478): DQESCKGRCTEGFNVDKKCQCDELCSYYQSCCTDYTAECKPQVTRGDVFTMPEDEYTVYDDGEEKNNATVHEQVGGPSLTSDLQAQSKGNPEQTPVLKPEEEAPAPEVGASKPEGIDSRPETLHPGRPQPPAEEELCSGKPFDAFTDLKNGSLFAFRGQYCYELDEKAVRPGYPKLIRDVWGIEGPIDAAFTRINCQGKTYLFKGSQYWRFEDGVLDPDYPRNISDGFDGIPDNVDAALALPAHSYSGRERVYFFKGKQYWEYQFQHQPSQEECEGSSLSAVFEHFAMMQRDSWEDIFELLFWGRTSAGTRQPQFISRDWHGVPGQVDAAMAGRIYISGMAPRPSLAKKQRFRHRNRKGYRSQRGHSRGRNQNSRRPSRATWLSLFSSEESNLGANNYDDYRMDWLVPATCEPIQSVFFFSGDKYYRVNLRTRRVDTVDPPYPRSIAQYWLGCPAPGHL

Sequence of human plasma fibronectin (human) (P02751 other isoform, or with tags, fused parts or gaps, chain 1 of 2): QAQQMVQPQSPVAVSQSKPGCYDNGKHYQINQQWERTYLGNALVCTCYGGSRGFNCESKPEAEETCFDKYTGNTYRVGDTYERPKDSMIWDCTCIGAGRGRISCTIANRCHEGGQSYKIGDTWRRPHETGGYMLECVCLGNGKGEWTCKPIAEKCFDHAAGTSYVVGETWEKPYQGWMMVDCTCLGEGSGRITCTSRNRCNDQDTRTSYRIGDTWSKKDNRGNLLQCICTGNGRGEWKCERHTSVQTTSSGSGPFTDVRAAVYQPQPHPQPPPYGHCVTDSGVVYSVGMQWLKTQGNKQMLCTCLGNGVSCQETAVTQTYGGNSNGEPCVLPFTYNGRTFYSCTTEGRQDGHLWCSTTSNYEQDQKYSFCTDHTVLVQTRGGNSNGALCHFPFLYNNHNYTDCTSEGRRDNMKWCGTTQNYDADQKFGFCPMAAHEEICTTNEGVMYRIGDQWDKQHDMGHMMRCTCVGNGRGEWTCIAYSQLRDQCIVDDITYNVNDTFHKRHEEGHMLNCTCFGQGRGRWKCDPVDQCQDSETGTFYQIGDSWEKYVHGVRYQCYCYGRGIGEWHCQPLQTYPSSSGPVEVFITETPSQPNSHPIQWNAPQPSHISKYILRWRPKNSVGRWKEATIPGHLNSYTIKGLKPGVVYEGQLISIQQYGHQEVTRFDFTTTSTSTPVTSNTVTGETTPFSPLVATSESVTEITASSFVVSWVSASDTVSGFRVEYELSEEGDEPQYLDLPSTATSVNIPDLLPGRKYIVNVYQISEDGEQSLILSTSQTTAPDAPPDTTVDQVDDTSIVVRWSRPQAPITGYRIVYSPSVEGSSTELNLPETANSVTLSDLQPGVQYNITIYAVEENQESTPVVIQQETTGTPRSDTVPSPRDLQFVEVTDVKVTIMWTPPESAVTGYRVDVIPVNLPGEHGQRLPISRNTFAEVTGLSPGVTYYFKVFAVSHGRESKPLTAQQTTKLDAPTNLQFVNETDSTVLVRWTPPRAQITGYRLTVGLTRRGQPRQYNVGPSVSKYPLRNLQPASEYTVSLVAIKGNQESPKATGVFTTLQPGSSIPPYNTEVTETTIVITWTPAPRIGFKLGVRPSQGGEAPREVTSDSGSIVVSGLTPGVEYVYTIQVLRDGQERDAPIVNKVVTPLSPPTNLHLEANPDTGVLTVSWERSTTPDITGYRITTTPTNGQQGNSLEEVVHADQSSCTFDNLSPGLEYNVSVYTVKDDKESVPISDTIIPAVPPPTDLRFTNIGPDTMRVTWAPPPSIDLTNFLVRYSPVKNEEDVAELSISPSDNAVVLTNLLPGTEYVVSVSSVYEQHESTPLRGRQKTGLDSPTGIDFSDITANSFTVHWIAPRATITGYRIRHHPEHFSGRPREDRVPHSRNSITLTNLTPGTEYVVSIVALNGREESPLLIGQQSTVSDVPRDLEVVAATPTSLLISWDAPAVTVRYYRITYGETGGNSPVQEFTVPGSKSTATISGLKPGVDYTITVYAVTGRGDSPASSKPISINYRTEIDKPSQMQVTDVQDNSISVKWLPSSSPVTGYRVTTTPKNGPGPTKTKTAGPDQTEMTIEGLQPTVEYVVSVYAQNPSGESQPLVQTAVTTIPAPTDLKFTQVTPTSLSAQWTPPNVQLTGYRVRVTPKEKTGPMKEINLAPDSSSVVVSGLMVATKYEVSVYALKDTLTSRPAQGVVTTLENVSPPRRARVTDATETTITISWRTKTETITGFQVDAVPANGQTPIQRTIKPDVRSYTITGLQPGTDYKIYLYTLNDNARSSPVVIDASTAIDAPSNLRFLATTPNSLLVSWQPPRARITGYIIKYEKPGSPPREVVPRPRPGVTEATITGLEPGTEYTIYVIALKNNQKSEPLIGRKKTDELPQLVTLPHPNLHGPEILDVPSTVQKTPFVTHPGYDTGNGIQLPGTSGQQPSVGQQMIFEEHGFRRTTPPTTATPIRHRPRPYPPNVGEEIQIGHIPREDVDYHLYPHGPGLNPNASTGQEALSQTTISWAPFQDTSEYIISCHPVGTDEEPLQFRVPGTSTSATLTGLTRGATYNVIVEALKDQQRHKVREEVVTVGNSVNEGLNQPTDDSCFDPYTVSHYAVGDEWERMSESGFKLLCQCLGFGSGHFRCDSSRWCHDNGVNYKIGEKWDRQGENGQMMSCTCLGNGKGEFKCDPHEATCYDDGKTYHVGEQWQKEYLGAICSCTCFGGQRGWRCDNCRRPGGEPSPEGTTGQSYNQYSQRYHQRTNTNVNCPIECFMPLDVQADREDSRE
Sequence of human plasma fibronectin (human) (P02751 other isoform, or with tags, fused parts or gaps, chain 2 of 2): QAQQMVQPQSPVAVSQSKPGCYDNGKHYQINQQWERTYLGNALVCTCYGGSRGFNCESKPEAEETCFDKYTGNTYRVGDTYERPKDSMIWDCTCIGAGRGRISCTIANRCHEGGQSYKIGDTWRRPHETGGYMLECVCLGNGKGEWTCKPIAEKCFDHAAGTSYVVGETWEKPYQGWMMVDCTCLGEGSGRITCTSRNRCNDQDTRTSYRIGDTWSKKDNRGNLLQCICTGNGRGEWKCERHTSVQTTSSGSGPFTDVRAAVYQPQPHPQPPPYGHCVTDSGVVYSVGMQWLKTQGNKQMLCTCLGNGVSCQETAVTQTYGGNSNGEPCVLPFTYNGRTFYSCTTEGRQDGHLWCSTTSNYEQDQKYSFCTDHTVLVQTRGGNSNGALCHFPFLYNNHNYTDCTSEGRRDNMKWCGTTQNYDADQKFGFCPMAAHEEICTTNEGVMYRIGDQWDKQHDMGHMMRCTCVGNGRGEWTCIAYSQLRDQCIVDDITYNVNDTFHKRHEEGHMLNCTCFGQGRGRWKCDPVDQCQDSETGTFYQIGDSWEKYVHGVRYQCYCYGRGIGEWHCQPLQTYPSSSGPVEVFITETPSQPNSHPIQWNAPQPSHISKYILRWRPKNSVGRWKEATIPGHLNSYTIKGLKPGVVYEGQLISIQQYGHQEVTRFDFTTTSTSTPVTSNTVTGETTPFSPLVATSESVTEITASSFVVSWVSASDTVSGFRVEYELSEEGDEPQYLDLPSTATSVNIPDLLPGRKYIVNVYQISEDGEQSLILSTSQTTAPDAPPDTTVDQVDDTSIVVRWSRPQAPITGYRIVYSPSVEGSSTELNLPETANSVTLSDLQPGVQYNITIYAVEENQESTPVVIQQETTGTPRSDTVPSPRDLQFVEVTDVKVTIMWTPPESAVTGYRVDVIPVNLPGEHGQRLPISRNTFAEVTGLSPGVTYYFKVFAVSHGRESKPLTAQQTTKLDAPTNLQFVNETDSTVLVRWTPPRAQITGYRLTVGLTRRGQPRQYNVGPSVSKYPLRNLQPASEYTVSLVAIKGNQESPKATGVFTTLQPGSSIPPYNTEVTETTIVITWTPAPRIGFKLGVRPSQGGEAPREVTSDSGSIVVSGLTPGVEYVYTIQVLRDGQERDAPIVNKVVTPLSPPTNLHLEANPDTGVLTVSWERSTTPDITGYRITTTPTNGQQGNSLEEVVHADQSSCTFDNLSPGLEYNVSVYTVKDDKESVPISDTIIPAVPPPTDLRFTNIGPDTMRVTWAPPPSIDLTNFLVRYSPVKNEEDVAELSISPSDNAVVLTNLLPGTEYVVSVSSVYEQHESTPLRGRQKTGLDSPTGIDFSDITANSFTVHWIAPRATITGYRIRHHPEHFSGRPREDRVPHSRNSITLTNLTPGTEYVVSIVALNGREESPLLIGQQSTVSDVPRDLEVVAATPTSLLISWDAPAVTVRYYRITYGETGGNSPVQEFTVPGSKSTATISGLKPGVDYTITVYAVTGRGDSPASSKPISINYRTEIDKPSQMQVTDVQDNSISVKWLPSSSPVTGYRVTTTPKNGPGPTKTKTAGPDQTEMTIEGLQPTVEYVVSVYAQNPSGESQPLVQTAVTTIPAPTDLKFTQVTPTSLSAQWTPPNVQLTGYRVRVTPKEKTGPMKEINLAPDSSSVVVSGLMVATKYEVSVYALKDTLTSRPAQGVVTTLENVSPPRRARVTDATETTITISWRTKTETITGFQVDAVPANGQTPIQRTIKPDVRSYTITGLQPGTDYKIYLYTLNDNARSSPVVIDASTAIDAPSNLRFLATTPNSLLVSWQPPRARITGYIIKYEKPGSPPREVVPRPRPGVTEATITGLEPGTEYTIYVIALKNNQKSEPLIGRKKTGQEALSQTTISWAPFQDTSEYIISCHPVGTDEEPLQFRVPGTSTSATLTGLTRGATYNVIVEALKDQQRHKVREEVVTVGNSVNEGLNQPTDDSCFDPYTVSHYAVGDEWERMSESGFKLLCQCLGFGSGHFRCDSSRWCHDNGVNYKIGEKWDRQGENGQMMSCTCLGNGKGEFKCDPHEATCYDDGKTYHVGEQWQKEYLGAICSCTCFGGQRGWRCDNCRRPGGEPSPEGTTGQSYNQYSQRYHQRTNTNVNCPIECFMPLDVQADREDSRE

Substance | Kd (human tenascin C (human)) [nM] | Kd [1] [nM] | Kd [2] [nM]
AREG26-38/PDGF-BB | 19.3 | 5.9 | 1.3
AREG26-38/IL-1Ra | 18.6 | 16.5 | 1.9
